Reference: US10766960 (dated 2020)

T1: FcgRIIa R (human, UniProt P12318)
T1 chain: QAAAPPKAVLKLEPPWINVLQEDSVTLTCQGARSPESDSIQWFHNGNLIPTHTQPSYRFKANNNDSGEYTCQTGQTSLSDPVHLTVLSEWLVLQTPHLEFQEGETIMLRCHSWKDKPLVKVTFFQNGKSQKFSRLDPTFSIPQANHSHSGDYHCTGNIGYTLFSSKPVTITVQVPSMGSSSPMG

T2: FcgRIIa H (human, UniProt P12318)
T2 chain: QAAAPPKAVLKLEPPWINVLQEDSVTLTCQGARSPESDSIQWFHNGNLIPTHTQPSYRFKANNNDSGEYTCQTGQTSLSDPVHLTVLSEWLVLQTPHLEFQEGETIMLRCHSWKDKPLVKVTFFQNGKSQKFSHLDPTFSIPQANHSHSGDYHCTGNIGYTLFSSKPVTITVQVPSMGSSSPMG

T3: FcgRIIb (human, UniProt P31994)
T3 chain: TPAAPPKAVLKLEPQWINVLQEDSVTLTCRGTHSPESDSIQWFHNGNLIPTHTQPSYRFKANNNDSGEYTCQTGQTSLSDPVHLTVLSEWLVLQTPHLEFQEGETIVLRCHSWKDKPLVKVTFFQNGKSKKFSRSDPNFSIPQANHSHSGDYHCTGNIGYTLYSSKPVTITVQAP

T4: FcgRIa (human, UniProt P12314)
T4 chain: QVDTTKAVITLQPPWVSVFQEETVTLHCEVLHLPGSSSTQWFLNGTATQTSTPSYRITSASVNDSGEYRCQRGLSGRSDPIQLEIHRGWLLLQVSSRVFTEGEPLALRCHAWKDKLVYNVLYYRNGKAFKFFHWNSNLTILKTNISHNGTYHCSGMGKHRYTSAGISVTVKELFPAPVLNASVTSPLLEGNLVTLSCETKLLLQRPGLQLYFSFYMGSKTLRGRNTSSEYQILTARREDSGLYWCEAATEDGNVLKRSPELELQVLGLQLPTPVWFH


Assays:
Assay in all cases: SPR
[1] = molecular target: T1, FcgRIIa R
[2] = molecular target: FcgRIIIa V (human, UniProt P08637)
FcgRIIIa V, sequence (P08637 17-208 F176V): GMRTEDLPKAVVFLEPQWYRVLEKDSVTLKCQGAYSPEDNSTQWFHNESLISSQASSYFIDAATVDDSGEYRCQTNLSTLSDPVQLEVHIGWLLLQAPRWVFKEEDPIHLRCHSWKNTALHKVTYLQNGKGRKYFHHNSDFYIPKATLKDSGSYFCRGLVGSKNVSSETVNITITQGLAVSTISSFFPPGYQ

[3] = molecular target: T2, FcgRIIa H
[4] = molecular target: T3, FcgRIIb
[5] = molecular target: T4, FcgRIa
[6] = molecular target: FcgRIIIa F (human, UniProt P08637)
FcgRIIIa F, sequence (P08637 17-208): as the sequence (P08637 17-208 F176V) above, with V160F counted along it

Binder	Kd [1] [nM]	Kd [2] [nM]	Kd [3] [nM]	Kd [4] [nM]	Kd [5] [nM]	Kd [6] [nM]
H240-FA024/H240-FB001/L73-k0 (antibody) chain 1: QDQLVQSGAEVKKPGASVKVSCKASGFNIKDTYIQWVRQAPGQGLEWMGRIDPLRKQTKYREKFEGRVTITADTSTNTAYMELSSLRSEDTAVYYCVRSGREFDYWGQGTLVTVSSASTKGPSVFPLAPSSKSTSGGTAALGCLVKDYFPEPVTVSWNSGALTSGVHTFPAVLQSSGLYSLSSVVTVPSSSLGTKTYTCNVNHKPSNTKVDKKVEPKSCDKTHTCPPCPAPEYYWGPSVFLFPPKPKDTLMISRTPEVTCVVVDVSDEEPKVKFNWYVDGVEVHNAKTKPREEQYNATYRVVSVLTVLHQDWLNGKEYKCKVSNKALPAPIEKTISKAKGQPREPQVYTLPPSRKEKTKNQVSLTCLVKGFYPSDIAVEWESNGQPENNYKTTPPVLDSDGSFFLYSKLTVDKSRWQQGNVFSCSVMHEALHNRYTQKSLSLSP chain 2: QDQLVQSGAEVKKPGASVKVSCKASGFNIKDTYIQWVRQAPGQGLEWMGRIDPLRKQTKYREKFEGRVTITADTSTNTAYMELSSLRSEDTAVYYCVRSGREFDYWGQGTLVTVSSASTKGPSVFPLAPSSKSTSGGTAALGCLVKDYFPEPVTVSWNSGALTSGVHTFPAVLQSSGLYSLSSVVTVPSSSLGTQTYICNVNHKPSNTKVDKKVEPKSCDKTHTCPPCPAPELLGGPSVFLFPPKPKDTLMISRTPEVTCVVVDVSHEEPEVQFNWYVDGVEVHNAKTKPREEQYNSTYRVVSVLTVLHQDWLNGKEYKCKVSNDALPMPIEETISKAKGQPREPQVYTLPPSREEMTKNQVSLTCLVKGFYPSDIAVEWESNGQPENNYKTTPPVLDSDGSFFLYSKLTVDKSRWQQGNVFSCSVMHEALHNHYTQESLSLSP chain 3: DIQMTQSPSSLSASVGDRVTITCRASQDIHKYIAWYQQKPGQAPRLLIQYTSTLQPGVPSRFSGSGSGTDYTFTISSLQPEDIATYYCLQYEQLRTFGGGTKVEIKRTVAAPSVFIFPPSDEQLKSGTASVVCLLNNFYPREAKVQWKVDNALQSGNSQESVTEQDSKDSTYSLSSTLTLSKADYEKHKVYACEVTHQGLSSPVTKSFNRGEC	370	1.9	110	2000	1.8	6.7
H240-FA020/H240-FB083/L73-k0 (antibody) chain 1: QDQLVQSGAEVKKPGASVKVSCKASGFNIKDTYIQWVRQAPGQGLEWMGRIDPLRKQTKYREKFEGRVTITADTSTNTAYMELSSLRSEDTAVYYCVRSGREFDYWGQGTLVTVSSASTKGPSVFPLAPSSKSTSGGTAALGCLVKDYFPEPVTVSWNSGALTSGVHTFPAVLQSSGLYSLSSVVTVPSSSLGTKTYTCNVNHKPSNTKVDKKVEPKSCDKTHTCPPCPAPEYYWGPSVFLFPPKPKDTLMISRTPEVTCVVVDVSDEEPEVKFNWYVDGVEVHNAKTKPREEQYNATYRVVSVLTVLHQDWLNGKEYKCKVSNKALPAPIEKTISKAKGQPREPQVYTLPPSRKEKTKNQVSLTCLVKGFYPSDIAVEWESNGQPENNYKTTPPVLDSDGSFFLYSKLTVDKSRWQQGNVFSCSVMHEALHNRYTQKSLSLSP chain 2: QDQLVQSGAEVKKPGASVKVSCKASGFNIKDTYIQWVRQAPGQGLEWMGRIDPLRKQTKYREKFEGRVTITADTSTNTAYMELSSLRSEDTAVYYCVRSGREFDYWGQGTLVTVSSASTKGPSVFPLAPSSKSTSESTAALGCLVEDYFPEPVTVSWNSGALTSGVHTFPAVLQSSGLYSLSSVVTVPSSNFGTQTYTCNVDHKPSNTKVDKTVEPKSCDKTHTCPPCPAPELLGGPSVFLFPPKPKDTLMISRTPEVTCVVVDVSHEEPEVQFNWYVDGVEVHNAETKPREEQYNSTYRVVSVLTVLHQDWLNGKEYKCKVSNDALPMPIEETISKAKGQPREPQVYTLPPSREEMTKNQVSLTCLVKGFYPSDIAVEWESNGQPENNYKTTPPVLDSDGSFFLYSKLTVDKSRWQQGNVFSCSVMHEALHNHYTQESLSLSP chain 3: DIQMTQSPSSLSASVGDRVTITCRASQDIHKYIAWYQQKPGQAPRLLIQYTSTLQPGVPSRFSGSGSGTDYTFTISSLQPEDIATYYCLQYEQLRTFGGGTKVEIKRTVAAPSVFIFPPSDEQLKSGTASVVCLLNNFYPREAKVQWKVDNALQSGNSQESVTEQDSKDSTYSLSSTLTLSKADYEKHKVYACEVTHQGLSSPVTKSFNRGEC	230	1.1	65	1000	0.12	3.4

The remaining lines, values ahead:

Kd [1] [nM]	Kd [2] [nM]	Kd [3] [nM]	Kd [4] [nM]	Kd [5] [nM]	Kd [6] [nM]	Binder
250	1.2	79	1500	0.095	4.6	H240-FA024/H240-FB084/L73-k0 (antibody) chain 1: QDQLVQSGAEVKKPGASVKVSCKASGFNIKDTYIQWVRQAPGQGLEWMGRIDPLRKQTKYREKFEGRVTITADTSTNTAYMELSSLRSEDTAVYYCVRSGREFDYWGQGTLVTVSSASTKGPSVFPLAPSSKSTSGGTAALGCLVKDYFPEPVTVSWNSGALTSGVHTFPAVLQSSGLYSLSSVVTVPSSSLGTKTYTCNVNHKPSNTKVDKKVEPKSCDKTHTCPPCPAPEYYWGPSVFLFPPKPKDTLMISRTPEVTCVVVDVSDEEPKVKFNWYVDGVEVHNAKTKPREEQYNATYRVVSVLTVLHQDWLNGKEYKCKVSNKALPAPIEKTISKAKGQPREPQVYTLPPSRKEKTKNQVSLTCLVKGFYPSDIAVEWESNGQPENNYKTTPPVLDSDGSFFLYSKLTVDKSRWQQGNVFSCSVMHEALHNRYTQKSLSLSP chain 2: QDQLVQSGAEVKKPGASVKVSCKASGFNIKDTYIQWVRQAPGQGLEWMGRIDPLRKQTKYREKFEGRVTITADTSTNTAYMELSSLRSEDTAVYYCVRSGREFDYWGQGTLVTVSSASTKGPSVFPLAPSSKSTSESTAALGCLVEDYFPEPVTVSWNSGALTSGVHTFPAVLQSSGLYSLSSVVTVPSSNFGTQTYTCNVDHKPSNTKVDKTVEPKSCDKTHTCPPCPAPELLGGPSVFLFPPKPKDTLMISRTPEVTCVVVDVSHEEPEVQFNWYVDGVEVHNAETKPREEQYNSTYRVVSVLTVLHQDWLNGKEYKCKVSNDALPMPIEETISKAKGQPREPQVYTLPPSREEMTKNQVSLTCLVKGFYPSDIAVEWESEGQPENNYKTTPPVLDSDGSFFLYSKLTVDKSRWQQGNVFSCSVMHEALHNHYTQESLSLSP chain 3: DIQMTQSPSSLSASVGDRVTITCRASQDIHKYIAWYQQKPGQAPRLLIQYTSTLQPGVPSRFSGSGSGTDYTFTISSLQPEDIATYYCLQYEQLRTFGGGTKVEIKRTVAAPSVFIFPPSDEQLKSGTASVVCLLNNFYPREAKVQWKVDNALQSGNSQESVTEQDSKDSTYSLSSTLTLSKADYEKHKVYACEVTHQGLSSPVTKSFNRGEC
440	1.7	120	3300	0.036	6.4	H240-FA030/H240-FB001/L73-k0 (antibody) chain 1: QDQLVQSGAEVKKPGASVKVSCKASGFNIKDTYIQWVRQAPGQGLEWMGRIDPLRKQTKYREKFEGRVTITADTSTNTAYMELSSLRSEDTAVYYCVRSGREFDYWGQGTLVTVSSASTKGPSVFPLAPSSKSTSGGTAALGCLVKDYFPEPVTVSWNSGALTSGVHTFPAVLQSSGLYSLSSVVTVPSSSLGTKTYTCNVNHKPSNTKVDKKVEPKSCDKTHTCPPCPAPEYYWGPSVFLFPPKPKDTLMISRTPEVTCVVVDVSDEEPKVKFNWYVDGVEVHNAKTKPREEQYNATYRVVSVLTVLHQDWLNGKEYKCKVSNKALPAPIEKTISKAKGQPREPQVYTLPPSRKEMTKNQVSLTCLVKGFYPSDIAVEWESNGQPENNYKTTPPVLDSDGSFFLYSKLTVDKSRWQQGNVFSCSVMHEALHNRYTQKSLSLSP chain 2: QDQLVQSGAEVKKPGASVKVSCKASGFNIKDTYIQWVRQAPGQGLEWMGRIDPLRKQTKYREKFEGRVTITADTSTNTAYMELSSLRSEDTAVYYCVRSGREFDYWGQGTLVTVSSASTKGPSVFPLAPSSKSTSGGTAALGCLVKDYFPEPVTVSWNSGALTSGVHTFPAVLQSSGLYSLSSVVTVPSSSLGTQTYICNVNHKPSNTKVDKKVEPKSCDKTHTCPPCPAPELLGGPSVFLFPPKPKDTLMISRTPEVTCVVVDVSHEEPEVQFNWYVDGVEVHNAKTKPREEQYNSTYRVVSVLTVLHQDWLNGKEYKCKVSNDALPMPIEETISKAKGQPREPQVYTLPPSREEMTKNQVSLTCLVKGFYPSDIAVEWESNGQPENNYKTTPPVLDSDGSFFLYSKLTVDKSRWQQGNVFSCSVMHEALHNHYTQESLSLSP chain 3: DIQMTQSPSSLSASVGDRVTITCRASQDIHKYIAWYQQKPGQAPRLLIQYTSTLQPGVPSRFSGSGSGTDYTFTISSLQPEDIATYYCLQYEQLRTFGGGTKVEIKRTVAAPSVFIFPPSDEQLKSGTASVVCLLNNFYPREAKVQWKVDNALQSGNSQESVTEQDSKDSTYSLSSTLTLSKADYEKHKVYACEVTHQGLSSPVTKSFNRGEC
